What was measured:
Protein S [1] = target: T1, Protein S (Homo sapiens, UniProt P07225); assay: ELISA plate-binding
T1 chain: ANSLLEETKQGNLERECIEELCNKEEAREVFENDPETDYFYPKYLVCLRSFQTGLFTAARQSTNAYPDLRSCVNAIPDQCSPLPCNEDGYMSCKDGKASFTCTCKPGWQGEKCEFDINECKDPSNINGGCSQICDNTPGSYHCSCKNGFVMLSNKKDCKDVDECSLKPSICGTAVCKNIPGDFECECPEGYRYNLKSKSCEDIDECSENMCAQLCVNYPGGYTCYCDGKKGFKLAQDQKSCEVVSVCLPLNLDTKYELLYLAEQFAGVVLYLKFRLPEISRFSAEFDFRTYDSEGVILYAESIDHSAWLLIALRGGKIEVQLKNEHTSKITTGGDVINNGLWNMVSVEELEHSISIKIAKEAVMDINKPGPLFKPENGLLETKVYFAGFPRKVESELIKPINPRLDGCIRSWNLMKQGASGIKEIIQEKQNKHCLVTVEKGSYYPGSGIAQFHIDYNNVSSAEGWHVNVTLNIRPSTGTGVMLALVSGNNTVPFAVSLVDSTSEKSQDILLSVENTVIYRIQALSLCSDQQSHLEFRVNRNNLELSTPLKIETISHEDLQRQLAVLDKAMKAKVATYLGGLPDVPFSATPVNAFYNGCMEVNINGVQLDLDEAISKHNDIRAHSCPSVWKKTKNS

Protein S [2] = target: T2, Protein S (Mus musculus, UniProt Q08761); assay: ELISA plate-binding
T2 chain: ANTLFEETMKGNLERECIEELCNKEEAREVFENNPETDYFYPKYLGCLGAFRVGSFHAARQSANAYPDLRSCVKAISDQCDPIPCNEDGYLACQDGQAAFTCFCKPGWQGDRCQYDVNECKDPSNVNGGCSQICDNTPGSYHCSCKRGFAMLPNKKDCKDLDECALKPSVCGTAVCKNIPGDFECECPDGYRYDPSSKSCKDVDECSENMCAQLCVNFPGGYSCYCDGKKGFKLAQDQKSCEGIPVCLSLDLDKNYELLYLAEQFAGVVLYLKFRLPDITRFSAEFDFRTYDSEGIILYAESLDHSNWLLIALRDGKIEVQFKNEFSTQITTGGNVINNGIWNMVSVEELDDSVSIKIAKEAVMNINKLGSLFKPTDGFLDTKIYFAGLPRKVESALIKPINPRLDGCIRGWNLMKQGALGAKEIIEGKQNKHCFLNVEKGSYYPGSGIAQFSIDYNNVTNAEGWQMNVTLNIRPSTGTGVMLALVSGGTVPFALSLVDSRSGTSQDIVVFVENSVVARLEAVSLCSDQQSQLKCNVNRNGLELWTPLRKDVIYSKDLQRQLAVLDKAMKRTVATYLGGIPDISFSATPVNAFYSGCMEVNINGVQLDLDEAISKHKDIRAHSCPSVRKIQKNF

B1: C4BPβ 1-119 (protein)
chain: MFFWCACCLMVAWRVSASDAEHCPELPPVDNSIFVAKEVEGQILGTYVCIKGYHLVGKKTLFCNASKEWDNTTTECRLGHCPDPVLVNGEFSSSGPVNVSDKITFMCNDHYILKGSNRS
Which Kd (Protein S [1]) does the source give for B1 here?
Its Kd is 0.86 nM.

What about the Kd (Protein S [2]) of the same binder?
The Kd was 0.21 nM.
